Assay results from IntAct's records for PubMed 31515488.

B1: Macrophage scavenger receptor types I and II (Homo sapiens), P21757 (parent)
chain: MEQWDHFHNQQEDTDSCSESVKFDARSMTALLPPNPKNSPSLQEKLKSFKAALIALYLLVFAVLIPLIGIVAAQLLKWETKNCSVSSTNANDITQSLTGKGNDSEEEMRFQEVFMEHMSNMEKRIQHILDMEANLMDTEHFQNFSMTTDQRFNDILLQLSTLFSSVQGHGNAIDEISKSLISLNTTLLDLQLNIENLNGKIQENTFKQQEEISKLEERVYNVSAEIMAMKEEQVHLEQEIKGEVKVLNNITNDLRLKDWEHSQTLRNITLIQGPPGPPGEKGDRGPTGESGPRGFPGPIGPPGLKGDRGAIGFPGSRGLPGYAGRPGNSGPKGQKGEKGSGNTLTPFTKVRLVGGSGPHEGRVEILHSGQWGTICDDRWEVRVGQVVCRSLGYPGVQAVHKAAHFGQGTGPIWLNEVFCFGRESSIEECKIRQWGTRACSHSEDAGVTCTL
partner: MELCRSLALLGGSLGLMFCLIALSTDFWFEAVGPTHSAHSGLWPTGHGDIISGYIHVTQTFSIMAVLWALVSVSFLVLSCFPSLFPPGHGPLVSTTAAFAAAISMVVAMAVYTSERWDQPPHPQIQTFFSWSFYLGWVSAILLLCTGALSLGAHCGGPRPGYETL
B2: Trichoplein keratin filament-binding protein (Homo sapiens), Q9BT92 (parent)
chain: MALPTLPSYWCSQQRLNQQLARQREQEARLRQQWEQNSRYFRMSDICSSKQAEWSSKTSYQRSMHAYQREKMKEEKRRSLEARREKLRQLMQEEQDLLARELEELRLSMNLQERRIREQHGKLKSAKEEQRKLIAEQLLYEHWKKNNPKLREMELDLHQKHVVNSWEMQKEEKKQQEATAEQENKRYENEYERARREALERMKAEEERRQLEDKLQAEALLQQMEELKLKEVEATKLKKEQENLLKQRWELERLEEERKQMEAFRQKAELGRFLRHQYNAQLSRRTQQIQEELEADRRILQALLEKEDESQRLHLARREQVMADVAWMKQAIEEQLQLERAREAELQMLLREEAKEMWEKREAEWARERSARDRLMSEVLTGRQQQIQEKIEQNRRAQEESLKHREQLIRNLEEVRELARREKEESEKLKSARKQELEAQVAERRLQAWEADQQEEEEEEEARRVEQLSDALLQQEAETMAEQGYRPKPYGHPKIAWN
partner: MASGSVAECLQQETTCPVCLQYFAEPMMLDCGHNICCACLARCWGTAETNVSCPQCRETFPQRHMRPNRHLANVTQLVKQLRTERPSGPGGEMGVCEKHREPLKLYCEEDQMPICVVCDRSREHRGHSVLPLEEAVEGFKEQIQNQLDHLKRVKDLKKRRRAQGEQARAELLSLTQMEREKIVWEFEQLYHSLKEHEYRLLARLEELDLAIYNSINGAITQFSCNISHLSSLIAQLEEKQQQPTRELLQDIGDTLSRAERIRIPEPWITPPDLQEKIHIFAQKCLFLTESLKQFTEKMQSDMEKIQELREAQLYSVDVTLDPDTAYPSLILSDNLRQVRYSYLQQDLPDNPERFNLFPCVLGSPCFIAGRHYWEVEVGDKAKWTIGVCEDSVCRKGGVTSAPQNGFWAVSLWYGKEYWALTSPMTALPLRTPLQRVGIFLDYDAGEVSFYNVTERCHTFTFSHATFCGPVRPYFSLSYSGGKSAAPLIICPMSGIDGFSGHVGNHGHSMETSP
B3: Breast cancer anti-estrogen resistance protein 3 (Homo sapiens), O75815-1 (parent)
chain: MAAGKFASLPRNMPVNHQFPLASSMDLLSSRSPLAEHRPDAYQDVSIHGTLPRKKKGPPPIRSCDDFSHMGTLPHSKSPRQNSPVTQDGIQESPWQDRHGETFTFRDPHLLDPTVEYVKFSKERHIMDRTPEKLKKELEEELLLSSEDLRSHAWYHGRIPRQVSENLVQRDGDFLVRDSLSSPGNFVLTCQWKNLAQHFKINRTVLRLSEAYSRVQYQFEMESFDSIPGLVRCYVGNRRPISQQSGAIIFQPINRTVPLRCLEEHYGTSPGQAREGSLTKGRPDVAKRLSLTMGGVQAREQNLPRGNLLRNKEKSGSQPACLDHMQDRRALSLKAHQSESYLPIGCKLPPQSSGVDTSPCPNSPVFRTGSEPALSPAVVRRVSSDARAGEALRGSDSQLCPKPPPKPCKVPFLKVPSSPSAWLNSEANYCELNPAFATGCGRGAKLPSCAQGSHTELLTAKQNEAPGPRNSGVNYLILDDDDRERPWEPAAAQMEKGQWDKGEFVTPLLETVSSFRPNEFESKFLPPENKPLETAMLKRAKELFTNNDPKVIAQHVLSMDCRVARILGVSEEMRRNMGVSSGLELITLPHGHQLRLDIIERHNTMAIGIAVDILGCTGTLEDRAATLSKIIQVAVELKDSMGDLYSFSALMKALEMPQITRLEKTWTALRHQYTQTAILYEKQLKPFSKLLHEGRESTCVPPNNVSVPLLMPLVTLMERQAVTFEGTDMWEKNDQSCEIMLNHLATARFMAEAADSYRMNAERILAGFQPDEEMNEICKTEFQMRLLWGSKGAQVNQTERYEKFNQILTALSRKLEPPPVKQAEL
partner: B3 chain
B4: BAG family molecular chaperone regulator 5 (Homo sapiens), Q9UL15 (parent)
chain: MDMGNQHPSISRLQEIQKEVKSVEQQVIGFSGLSDDKNYKKLERILTKQLFEIDSVDTEGKGDIQQARKRAAQETERLLKELEQNANHPHRIEIQNIFEEAQSLVREKIVPFYNGGNCVTDEFEEGIQDIILRLTHVKTGGKISLRKARYHTLTKICAVQEIIEDCMKKQPSLPLSEDAHPSVAKINFVMCEVNKARGVLIALLMGVNNNETCRHLSCVLSGLIADLDALDVCGRTEIRNYRREVVEDINKLLKYLDLEEEADTTKAFDLRQNHSILKIEKVLKRMREIKNELLQAQNPSELYLSSKTELQGLIGQLDEVSLEKNPCIREARRRAVIEVQTLITYIDLKEALEKRKLFACEEHPSHKAVWNVLGNLSEIQGEVLSFDGNRTDKNYIRLEELLTKQLLALDAVDPQGEEKCKAARKQAVRLAQNILSYLDLKSDEWEY
B5: Macrophage scavenger receptor types I and II (Homo sapiens), P21757 (parent)
chain: B1 chain
B6: Dynein axonemal light chain 4 (Homo sapiens), O96015 (parent)
chain: MGETEGKKDEADYKRLQTFPLVRHSDMPEEMRVETMELCVTACEKFSNNNESAAKMIKETMDKKFGSSWHVVIGEGFGFEITHEVKNLLYLYFGGTLAVCVWKCS
B7: DNA topoisomerase 3-beta-1 (Homo sapiens), O95985 (parent)
chain: MKTVLMVAEKPSLAQSIAKILSRGSLSSHKGLNGACSVHEYTGTFAGQPVRFKMTSVCGHVMTLDFLGKYNKWDKVDPAELFSQAPTEKKEANPKLNMVKFLQVEGRGCDYIVLWLDCDKEGENICFEVLDAVLPVMNKAHGGEKTVFRARFSSITDTDICNAMACLGEPDHNEALSVDARQELDLRIGCAFTRFQTKYFQGKYGDLDSSLISFGPCQTPTLGFCVERHDKIQSFKPETYWVLQAKVNTDKDRSLLLDWDRVRVFDREIAQMFLNMTKLEKEAQVEATSRKEKAKQRPLALNTVEMLRVASSSLGMGPQHAMQTAERLYTQGYISYPRTETTHYPENFDLKGSLRQQANHPYWADTVKRLLAEGINRPRKGHDAGDHPPITPMKSATEAELGGDAWRLYEYITRHFIATVSHDCKYLQSTISFRIGPELFTCSGKTVLSPGFTEVMPWQSVPLEESLPTCQRGDAFPVGEVKMLEKQTNPPDYLTEAELITLMEKHGIGTDASIPVHINNICQRNYVTVESGRRLKPTNLGIVLVHGYYKIDAELVLPTIRSAVEKQLNLIAQGKADYRQVLGHTLDVFKRKFHYFVDSIAGMDELMEVSFSPLAATGKPLSRCGKCHRFMKYIQAKPSRLHCSHCDETYTLPQNGTIKLYKELRCPLDDFELVLWSSGSRGKSYPLCPYCYNHPPFRDMKKGMGCNECTHPSCQHSLSMLGIGQCVECESGVLVLDPTSGPKWKVACNKCNVVAHCFENAHRVRVSADTCSVCEAALLDVDFNKAKSPLPGDETQHMGCVFCDPVFQELVELKHAASCHPMHRGGPGRRQGRGRGRARRPPGKPNPRRPKDKMSALAAYFV
partner: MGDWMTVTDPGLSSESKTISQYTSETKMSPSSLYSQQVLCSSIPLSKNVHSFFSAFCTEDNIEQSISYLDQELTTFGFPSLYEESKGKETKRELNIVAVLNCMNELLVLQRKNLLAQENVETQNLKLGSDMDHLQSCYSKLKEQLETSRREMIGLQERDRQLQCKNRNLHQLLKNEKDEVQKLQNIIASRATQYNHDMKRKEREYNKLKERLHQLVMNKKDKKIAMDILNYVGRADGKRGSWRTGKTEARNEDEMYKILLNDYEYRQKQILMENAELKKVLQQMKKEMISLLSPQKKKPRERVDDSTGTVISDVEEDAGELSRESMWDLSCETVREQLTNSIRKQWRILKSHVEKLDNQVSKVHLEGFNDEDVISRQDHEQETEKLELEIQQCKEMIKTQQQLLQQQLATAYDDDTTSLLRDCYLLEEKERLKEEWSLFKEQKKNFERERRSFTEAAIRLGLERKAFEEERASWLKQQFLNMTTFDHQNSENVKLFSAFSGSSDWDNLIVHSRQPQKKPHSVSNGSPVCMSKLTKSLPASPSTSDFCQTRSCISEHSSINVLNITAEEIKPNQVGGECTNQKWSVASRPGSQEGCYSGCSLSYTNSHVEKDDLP
B8: Migration and invasion-inhibitory protein (Homo sapiens), Q5JXC2 (parent)
chain: MVEAEELAQLRLLNLELLRQLWVGQDAVRRSVARAASESSLESSSSYNSETPSTPETSSTSLSTSCPRGRSSVWGPPDACRGDLRDVARSGVASLPPAKCQHQESLGRPRPHSAPSLGTSSLRDPEPSGRLGDPGPQEAQTPRSILAQQSKLSKPRVTFSEESAVPKRSWRLRPYLGYDWIAGSLDTSSSITSQPEAFFSKLQEFRETNKEECICSHPEPQLPGLRESSGSGVEEDHECVYCYRVNRRLFPVPVDPGTPCRLCRTPRDQQGPGTLAQPAHVRVSIPLSILEPPHRYHIHRRKSFDASDTLALPRHCLLGWDIFPPKSEKSSAPRNLDLWSSVSAEAQHQKLSGTSSPFHPASPMQMLPPTPTWSVPQVPRPHVPRQKP
partner: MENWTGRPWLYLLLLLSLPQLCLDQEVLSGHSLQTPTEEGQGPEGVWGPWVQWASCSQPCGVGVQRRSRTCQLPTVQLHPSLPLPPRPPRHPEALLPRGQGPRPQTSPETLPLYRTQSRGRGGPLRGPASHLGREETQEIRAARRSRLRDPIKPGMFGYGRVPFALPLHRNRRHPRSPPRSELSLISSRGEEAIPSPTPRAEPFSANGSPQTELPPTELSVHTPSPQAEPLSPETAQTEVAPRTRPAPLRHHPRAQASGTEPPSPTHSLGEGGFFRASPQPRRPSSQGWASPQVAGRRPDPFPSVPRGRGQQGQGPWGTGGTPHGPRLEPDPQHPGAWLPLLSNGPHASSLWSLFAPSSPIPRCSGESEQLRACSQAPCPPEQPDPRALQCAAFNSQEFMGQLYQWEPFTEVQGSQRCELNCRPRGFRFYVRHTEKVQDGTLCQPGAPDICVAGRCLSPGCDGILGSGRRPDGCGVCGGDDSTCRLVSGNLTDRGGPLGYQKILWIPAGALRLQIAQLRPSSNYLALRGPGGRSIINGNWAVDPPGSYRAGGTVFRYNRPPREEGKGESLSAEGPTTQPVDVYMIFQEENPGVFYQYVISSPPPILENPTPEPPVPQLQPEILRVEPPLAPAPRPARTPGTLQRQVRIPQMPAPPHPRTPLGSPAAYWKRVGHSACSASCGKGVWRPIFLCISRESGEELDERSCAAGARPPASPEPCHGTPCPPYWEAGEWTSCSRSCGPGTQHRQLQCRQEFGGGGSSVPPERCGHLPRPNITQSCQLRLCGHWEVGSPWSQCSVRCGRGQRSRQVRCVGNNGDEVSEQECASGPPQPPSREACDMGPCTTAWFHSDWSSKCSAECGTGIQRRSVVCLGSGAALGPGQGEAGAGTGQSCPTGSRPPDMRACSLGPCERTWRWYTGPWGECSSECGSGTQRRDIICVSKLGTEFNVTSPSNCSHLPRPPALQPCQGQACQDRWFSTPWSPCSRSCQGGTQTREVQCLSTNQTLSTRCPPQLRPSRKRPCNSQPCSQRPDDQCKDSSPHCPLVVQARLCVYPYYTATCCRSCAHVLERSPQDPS

Variants of: B1
Conditions: with nkg7_human NKG7, Q16617

Variant	effect of a mutation on the interaction
P346L	with no effect

Variants of: B2
Conditions: with tri27_human TRIM27, P14373

Variant	effect of a mutation on the interaction
K127R	with no effect

Variants of: B3
Conditions: with bcar3_human BCAR3, O75815

Variant	effect of a mutation on the interaction
P404S	with no effect

Variants of: B4
Conditions: with thap1_human THAP1, Q9NVV9
Sequence of thap1_human THAP1, Q9NVV9 (Q9NVV9 whole entry): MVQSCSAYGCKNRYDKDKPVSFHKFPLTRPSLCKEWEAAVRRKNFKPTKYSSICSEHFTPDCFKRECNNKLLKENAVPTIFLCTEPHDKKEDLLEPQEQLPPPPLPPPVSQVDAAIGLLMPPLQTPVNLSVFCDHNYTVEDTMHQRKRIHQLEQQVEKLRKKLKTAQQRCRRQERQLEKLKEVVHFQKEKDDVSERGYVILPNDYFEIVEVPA

Variant	effect of a mutation on the interaction
I279L	with no effect

Variants of: B5
Conditions: with lerl1_human LEPROTL1, O95214
Sequence of lerl1_human LEPROTL1, O95214 (O95214 whole entry): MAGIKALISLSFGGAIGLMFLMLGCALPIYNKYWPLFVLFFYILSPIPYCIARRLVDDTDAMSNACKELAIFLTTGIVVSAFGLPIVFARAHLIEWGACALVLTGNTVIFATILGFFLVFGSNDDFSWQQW

Variant	effect of a mutation on the interaction
P286T	with no effect

Variants of: B5
Conditions: with sc22a_human SEC22A

Variant	effect of a mutation on the interaction
V113A	with no effect
P346L	with no effect
P275A	with no effect

Variants of: B6
Conditions: with dyl2_human DYNLL2, Q96FJ2
Sequence of dyl2_human DYNLL2, Q96FJ2 (Q96FJ2 whole entry): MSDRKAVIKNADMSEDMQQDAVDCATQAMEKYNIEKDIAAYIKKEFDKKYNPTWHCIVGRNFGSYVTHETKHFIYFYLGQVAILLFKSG

Variant	effect of a mutation on the interaction
R32C	disrupting interaction strength

Variants of: B7
Conditions: with adip_human SSX2IP

Variant	effect of a mutation on the interaction
R267W	disrupting interaction strength

Variants of: B8
Conditions: with atl4_human ADAMTSL4, Q6UY14

Variant	effect of a mutation on the interaction
R171C	with no effect
